Data taken from patent publication US5962294A, “Compositions and methods for the identification and synthesis of sialyltransferases” (The Regents of the University of California, priority 1993, dated 1999).
Where a chain is given by its changes, count along the chain named.

Assays:
[1] = molecular target: [14C]NeuAc labeled α1-acid glycoprotein produced from the asialo-derivative using ST3N enzyme
[2] = molecular target: [14C]NeuAc labeled α1-acid glycoprotein produced from the asialo-derivative using ST6N enzyme
[3] = molecular target: [14C]NeuAc labeled α1-acid glycoprotein produced from the asialo-derivative using ST3 enzyme
[4] = molecular target: ovine submaxillary asialo-mucin (GalNAc-Thr/Ser) (ovine)
[5] = molecular target: asialo-α1-acid glycoprotein (Galβ1,4GlcNAc-R)
[6] = molecular target: antifreeze glycoprotein (Galβ1,3GalNAc-Thr)
[7] = molecular target: asialofetuin (Galβ1,3GalNAc-Thr/Ser and Galβ1,4GlcNAc-R)
[8] = molecular target: asialo-α1-acid glycoprotein (Galβ1,4GlcNAc-R); remark: listed apart in the source
human ST3N = molecular target: T1, human ST3N (Homo sapiens, UniProt Q11203); assay: Acceptor specificity of soluble human ST3N (protein A fusion from COS-1 cells, on IgG Sepharose); settings: acceptor 0.2 mM; relative to LNT
T1 sequence (Q11203 62-375): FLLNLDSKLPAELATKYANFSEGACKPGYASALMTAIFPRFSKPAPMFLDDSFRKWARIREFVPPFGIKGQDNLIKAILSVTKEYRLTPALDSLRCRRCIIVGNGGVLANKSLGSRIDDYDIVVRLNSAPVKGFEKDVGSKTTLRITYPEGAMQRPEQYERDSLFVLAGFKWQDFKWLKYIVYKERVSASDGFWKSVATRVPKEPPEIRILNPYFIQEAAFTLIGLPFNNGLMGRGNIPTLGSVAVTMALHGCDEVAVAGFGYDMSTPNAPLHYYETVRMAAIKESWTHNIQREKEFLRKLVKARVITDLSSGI

rat ST3N = molecular target: T2, rat ST3N (Rattus norvegicus, UniProt Q02734); assay: Acceptor specificity of soluble rat ST3N fusion protein (Table 3); settings: acceptor 0.2 mM; relative to LNT
T2 sequence (Q02734 29-374 limits assumed): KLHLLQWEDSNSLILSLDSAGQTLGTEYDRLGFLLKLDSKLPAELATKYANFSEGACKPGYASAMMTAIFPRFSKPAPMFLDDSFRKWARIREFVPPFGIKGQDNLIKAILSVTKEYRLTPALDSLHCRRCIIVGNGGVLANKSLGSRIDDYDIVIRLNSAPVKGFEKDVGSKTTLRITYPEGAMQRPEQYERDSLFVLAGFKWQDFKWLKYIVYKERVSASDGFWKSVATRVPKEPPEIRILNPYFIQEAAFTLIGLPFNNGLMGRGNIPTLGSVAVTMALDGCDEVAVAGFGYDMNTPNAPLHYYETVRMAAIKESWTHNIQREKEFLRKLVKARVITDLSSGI

ST3O = molecular target: T3, ST3O (Sus scrofa, UniProt Q02745); assay: Acceptor specificity of ST3O (Table 4); settings: acceptor 0.2 mM
T3 sequence (Q02745 28-343 limits assumed): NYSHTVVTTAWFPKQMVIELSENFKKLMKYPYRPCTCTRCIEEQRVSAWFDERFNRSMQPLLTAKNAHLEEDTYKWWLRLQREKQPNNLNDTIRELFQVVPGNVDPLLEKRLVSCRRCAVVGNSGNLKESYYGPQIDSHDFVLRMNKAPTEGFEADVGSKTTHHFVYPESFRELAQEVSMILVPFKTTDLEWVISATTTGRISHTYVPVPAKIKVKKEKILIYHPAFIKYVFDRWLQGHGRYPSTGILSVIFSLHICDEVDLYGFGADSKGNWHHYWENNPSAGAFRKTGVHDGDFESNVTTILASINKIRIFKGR

ST3N = molecular target: T4, ST3N (Rattus norvegicus, UniProt Q02734); assay: Acceptor specificity of ST3N (Table 4)
T4 sequence (Q02734 29-374 limits assumed): T2 sequence (Q02734 29-374 limits assumed)

[9] = tested on: sialidase from Newcastle disease virus; format: biochemical; settings: product formed by the named enzyme, hydrolyzed with Newcastle disease virus sialidase

Molecule: sialidase from Newcastle disease virus (Oxford Glycosystems) (enzyme)
- release of [14C]NeuAc from labeled glycoprotein (% of total 14C NeuAc released) [1]: 82
- release of [14C]NeuAc from labeled glycoprotein (% of total 14C NeuAc released) [2]: 0
- release of [14C]NeuAc from labeled glycoprotein (% of total 14C NeuAc released) [3]: 83

Molecule: signal peptide-ST (sp-ST), soluble form of porcine Galβ1,3GalNAc α2,3 sialyltransferase (pSVL-spST) (enzyme)
- Relative rate (%) of sialic acid transfer, acceptor 0.2 mM [4]: 5%
- Relative rate (%) of sialic acid transfer, acceptor 0.2 mM [5]: 0%
- Relative rate (%) of sialic acid transfer, acceptor 0.2 mM [6]: 57%
- Relative rate (%) of sialic acid transfer, acceptor 0.2 mM [7]: 26%

Molecule: soluble protein A/ST3 fusion (expression plasmid AZ3), human ST3 sialyltransferase (from UniProt P02976) (enzyme)
- Relative rate (%) of sialic acid transfer, acceptor 0.2 mM [4]: 3.8%
- Relative rate (%) of sialic acid transfer, acceptor 0.2 mM [5]: 51%
- Relative rate (%) of sialic acid transfer, acceptor 0.2 mM [6]: 50%
- Relative rate (%) of sialic acid transfer, acceptor 0.2 mM [7]: 92%

Molecule: soluble protein A/human ST3N fusion (expression plasmid A3NHP), human Galβ1,3(4)GlcNAc α2,3-sialyltransferase (from UniProt P02976) (enzyme)
- Relative activity (%), acceptor 0.2 mM [8]: 14%

Molecule: CC(=O)N[C@H]1C(O)O[C@H](CO)[C@@H](O[C@@H]2O[C@H](CO)[C@H](O)[C@H](O)[C@H]2O)[C@@H]1O (some centres unmarked) [Galβ1,4GlcNAc]
- Relative activity (%) Human (human ST3N): 22%
- Relative activity (%) Rat (rat ST3N): 19%
- Relative rate (%) ST30 (ST3O): 0%
- Relative rate (%) ST3N (ST3N; acceptor 0.2 mM): 19%
- Relative rate (%) ST3N (ST3N; acceptor 2.0 mM): 46%

B1: rat Galβ1,3(4)GlcNAc α2,3 sialyltransferase (protein)
chain: T2 sequence (Q02734 29-374 limits assumed) with W226S, G257R
- total [14C]NeuAc released from labeled α1-acid glycoprotein product [9]: 82%

B2: ST3: human sialyltransferase of SEQ. ID. NO:12; β-galactoside α2,3-sialyltransferase (protein)
chain: MCPAGWKLLAMLALVLVVMVWYSISREDRYIEPFYFPIPEKKEPCLQGEAESKASKLFGNYSRDQPIFLRLEDYFWVKTPSAYELPYGTKGSEDLLLRVLAITSSSIPKNIQSLRCRRCVVVGNGHRLRNSSLGDAINKYDVVIRLNNAPVAGYEGDVGSKTTMRLFYPESAHFDPKVENNPDTLLVLVAFKAMDFHWIETILSDKKRVRKGFWKQPPLIWDVNPKQIRILNPFFMEIAADKLLSLPMQQPRKIKQKPTTGLLAITLALHLCDLVHIAGFGYPDAYNKKQTIHYYEQITLKSMAGSGHNVSQEALAIKRMLEMGAIKNLTSF
- total [14C]NeuAc released from labeled α1-acid glycoprotein product [9]: 83%

B3: rat Galβ1,4GlcNAc α2,6-sialyltransferase (protein)
chain: SKQDPKEDIPILSYHRVTAKVKPQPSFQVWDKDSTYSKLNPRLLKIWRNYLNMNKYKVSYKGPGPGVKFSVEALRCHLRDHVNVSMIEATDFPFNTTEWEGYLPKENFRTKVGPWQRCAVVSSAGSLKNSQLGREIDNHDAVLRFNGAPTDNFQQDVGSKTTIRLMNSQLVTTEKRFLKDSLYTEGILIVWDPSVYHADIPKWYQKPDYNFFETYKSYRRLDPSQPFYILKPQMPWELWDIIQEISADLIQPNPPSSGMLGIIIMMTLCDQVDIYEFLPSKRKTDVCYYHQKFFDSACTMGAYHPLLFEKNMVKHLNEGTDEDIYLFGKATLSGFRNIRC
- total [14C]NeuAc released from labeled α1-acid glycoprotein product [9]: 0%
